Measurements published in article PMC9873690, “Structural insights into the elevator-type transport mechanism of a bacterial ZIP metal transporter” (Nature Communications, 2023).

Molecular target: the molecule itself
Experiment: cross-linking; disulfide cross-linking of variants purified in DDM with 50 µM Cu(II)-(1,10-phenanthroline)3 at 25 °C; non-reducing SDS-PAGE and Western blot with anti-Histag antibody

B1: BbZIP L138C/M295C variant (natural protein)
chain: MNQPSSLAADLRGAWHAQAQSHPLITLGLAASAAGVVLLLVAGIVNALTGENRVHVGYAVLGGAAGFAATALGALMALGLRAISARTQDAMLGFAAGMMLAASAFSLILPGLDAAGTIVGPGPAAAAVVALGLGLGVCLMLGLDYFTPHEHERTGHQGPEAARVNRVWLFVLTIILHNLPEGMAIGVSFATGDLRIGLPLTSAIAIQDVPEGLAVALALRAVGLPIGRAVLVAVASGLMEPLGALVGVGISSGFALAYPISMGLAAGAMIFVVSHEVIPETHRNGHETTATVGLCAGFALMMFLDTALG
notes: Purified protein was detected with the anti-Histag antibody; in the membrane fraction it was detected with a custom monoclonal antibody against BbZIP; source: E. coli C41 (DE3) pLysS, purified in DDM (1 mM TCEP except in the last size-exclusion step); also in the spheroplast-derived membrane fraction of E. coli cells; not shown: His-tag, N-terminal, kept
stoichiometry N: 2
